# Assay results taken from patent US20090208447A1 (MEDIGENE, published 2009).
# Target: HLA-A*0201 loaded with the Carcinoembryonic antigen (CEA)-derived … peptide (biotinylated on the C-terminal biotinylation tag)
# Assay: SPR (Biacore), Example 4
Binder,Kd,koff
SEQ ID NO 7 (receptor) MGHLPKPTLWAEPGSVITMDQPVTLRCQGGQETQEYRLYREKKTAPWITRIPQELVKKGQFPIPSITWEHAGRYRCYYGSDTAGRSESSDPLELVVTGVYIKPTLSAQPSPVVNSGGNVTLQCDSQVAFDGFILCKEGEDEHPQCLNSQPHARGSSRAIFSVGPVSPGRRWWYRCYAYDSNSPYEWSLPSDLLELLVL,≤ 1000 nM,≤ 2 s⁻¹
SEQ ID NO 24 (receptor) MGHLPKPTLWAEPGSVITQGSPVTLRCQGGQETQEYRLYREKKTAPWITRIPQELVKKGQFPIPSITWEHAGRYRCYYGSQGGLRSESSDPLELVVTGVYIKPTLSAQPSPVVNSGGNVTLQCDSQVAFDGFILCKEGEDEHPQCLNSQPHARGSSRAIFSVGPVSPSRRWWYRCYAYDSNSPYEWSLPSDLLELLVL,≤ 1000 nM,≤ 2 s⁻¹
SEQ ID NO 8 (receptor) MGHLPKPTLWAEPGSVITLMQPVTLRCQGGQETQEYRLYREKKTAPWITRIPQELVKKGQFPIPSITWEHAGRYRCYYGSDTAGRSESSDPLELVVTGAYIKPTLSAQPSPVVNSGGNVTLQCDSQVAFDGFILCKEGEDEHPQCLNSQPHARGSSRAIFSVGPVSPSRRWWYRCYAYDSNSPYEWSLPSDLLELLVL,≤ 1000 nM,≤ 2 s⁻¹
SEQ ID NO 9 (receptor) MGHLPKPTLWAEPGSVITMQRPVTLRCQGGQETQEYRLYRERKTAPWITRIPQELVKKGQFPIPSITWEHAGRYRCYYGSDTAGRSESSDPLELVVTGAYIKPTLSAQPSPVVNSGGNVTLQCDSQVAFDGFILCKEGEDEHPQCLSSQPHARGSSRAIFSVGPVSPSRRWWYRCYAYDSNSPYEWSLPSDLLELLVL,≤ 1000 nM,≤ 2 s⁻¹
SEQ ID NO 25 (receptor) MGHLPKPTLWAEPGSVITQGSPVTLRCQGGQETQEYRLYREKKTAPWITRIPQELVKKGQFPIPSITWEHAGRYRCYYGTQTAGRSESSDPLELVVTGVYIKPTLSAQPSPVVNSGGNVTLQCDSQVAFDGFILCKEGEDEHPQCLNSQPHARGSSRAIFSVGPVSPSRRWWYRCYAYDSNSPYEWSLPSDLLELLVL,≤ 1000 nM,≤ 2 s⁻¹

# Now from value to binder:
Kd,koff,Binder
≤ 1000 nM,≤ 2 s⁻¹,SEQ ID NO 6 (receptor) MGHLPKPTLWAEPGSVITMGQPVTLRCQGGQETQEYRLYREKKTAPWITRIPQELVKKGQFPIPSITWEHAGRYRCYYGSDTAGRSESSDPLELVVTGAYIKPTLSAQPSPVVNSGGNVTLQCDSQVAFDGFILCKEGEDEHPQCLNSQPHARGSSRAIFSVGPVSPSRRWWYRCYAYDSNSPYEWSLPSDLLELLVL
≤ 1000 nM,≤ 2 s⁻¹,SEQ ID NO 22 (receptor) MGHLPKPTLWAEPGSVITLSQPVTLRCQGGQETQEYRLYREKKTAPWITRIPQELVKKGQFPIPSITWEHAGRYRCYYGSDTAGRSESSDPLELVVTGVYIKPTLSAQPSPVVNSGGNVTLQCDSQVAFDGFILCKEGEDEHPQCLNSQPHARGSSRAIFSVGPVSPSRRWWYRCYAYDSNSPYEWSLPSDLLELLVL
≤ 1000 nM,≤ 2 s⁻¹,SEQ ID NO 21 (receptor) MGHLPKPTLWAEPGSVITLFQPVTLRCQGGQETQEYRLYREKKTAPWITRIPQELVKKGQFPIPSITWEHAGRYRCYYGSDTAGRSESSDPLELVVTGAYIKPTLSAQPSPVVNSGGNVTLQCDSQVAFDGFILCKEGEDEHPQCLNSQPHARGSSRAIFSVGPVSPSRRWWYRCYAYDSNSPYEWSLPSDLLELLVL
≤ 1000 nM,≤ 2 s⁻¹,SEQ ID NO 23 (receptor) MGHLPKPTLQAEPGSVITQGSPVTLRCQGGQETQEYRLYREKKTAPWITRIPQELVKKGQFPIPSITWEHAGRYRCVIQRGTAGRSESSDPLELVVTGVYIKPTLSAQPSPVVNSGGNVTLQCDSQVAFDGFILCKEGEDEHPQCLNSQPHARGSSRAIFSVGPVSPSRRWWYRCYAYDSNSPYEWSLPSDLLELLVL
